Experimental data: patent US12723078 (University of Texas, dated 2026)
Where a chain is given by its changes, count along the chain named.

B1: mAb of B cell clone 162 (supernatant) (antibody, V domains shown)
VH: QSVKESEGGLVQPGGSLTLSCKASGIDFSSAYMSWVRQAPGKGLEWIGKMRINDRSHYANWVNGRFTISNHNDQNTVELQLNSLTAADTATYFCARIATGTNVDDFWGPGTLVTISS
VL: ELVMTQTASPVSAAVGGTVTISCQSSQSVYSNNWLSWYQQKPGQPPKRLIYKASTLETGVPSRFKGSGSGKQFTLTISDLECDDAATYYCAGGYSGDLYAFGGGTEVVVK
notes: rabbit; also called B1-#162
B2: mAb of B cell clone 93 (supernatant) (antibody, V domains shown)
VH: EQSVEESGGDLVKPGTSLTLTCTASGFSFSGNTICWVRQAPGKRPEWIACIYPSSTSITTYATWAKGRFTVSKTSSTTVTLQMTSLTAADTATYFCARRYAAFLTYGSGAFDPWGPGTLVTISS
VL: ELDLTQTPASVSAAVGGTVTINCQASESIGSALAWYQQKPGQPPKLLIYSASALASGVPSRFKGSGSGTEYTLTISDLECADAATYYCQSYYGSGTTALDTFGGGTEVEIK
notes: rabbit; also called B1-#93
B3: mAb of B cell clone 167 (supernatant) (antibody, V domains shown)
VH: EQLMEESGGGLVQPEGSLTLTCTASRFSLSNMNVMCWVRQAPGKGLEWIGCINIGGTNIWYASWAKGRFTISKTSSTTVTLQMTSLTVADTATYFCARSYITDRIYDYDFWGPGTLVTISS
VL: ELDMTQTPSPVSAAVGGSVTISCQASQTIYNNKNLAWYQQKPGQPPKLLIYQASKLASGVSSRFSGSGSGTQFTLTISGVQCDDAATYYCQGEFSCSSGDCTTFGGGTEVVVK
notes: rabbit
B4: mAb of B cell clone 5 (supernatant) (antibody, V domains shown)
VH: EQSLEESGGDLVKPEGSLTLTCTASELSFSSAYYMCWVRQAPGKGLEWIGCIYSGDGDTYYANWAKGRFTISKTSSTTVTLQMTSLTDADTATYFCARALDSHYSSFDLWGPGTLVTISS
VL: ELDMTQTPSSVSAAVGDTVTIKCQASQSIYRYLAWYQQKPGQRPSLLIYYGSDLASGVPSRFSGSGSGTEFTLTISDLECADAASYYCQTTYDDYHNGWAFGGGTNVEIN
notes: rabbit; also called B1-#5
B5: mAb of B cell clone 110 (supernatant) (antibody, V domains shown)
VH: QSLEESGGDLVKPEGSLTLTCTASGFSFSSSYWICWVRQAPGKGLEWIGCIYAGNSANTYYASWAKGRFTISKTSSTTVTLQLTSLTAADTATYFCASRNGGAPDGLNLWGPGTLVTISS
VL: ELDLTQTPASVEAAVGGTVTIKCQASLNINSWLAWYQQKPGQPPKLLISYTSSLASGVPSRFKGSGSGTEYTLTINDLECADAATYYCQTTYFGTNGGGFGGGTEVEIK
notes: rabbit; also called B1-#110
B6: mAb of B cell clone 4 (supernatant) (antibody, V domains shown)
VH: RAVGKESGGGLVKPGASLTLTCKASGFDFSGIYWVCWVRQAPGKGLEWIACFDAERTGNTYYATWAKGRFTISRTSSTTVTLQMTSLTAADTATYFCARSYYMWGPGTLVTVSS
VL: ELVLTQTPSPVSAVVGGSVTINCQSSQSLYNANDLSWYQQKPGQPPKQLIYWASTLASGVPSRFKGSGSGTQFTLSISDVQCDDAATYYCLGEFSCSSFDCHVFGGGTEVVVK
notes: rabbit; also called B1-#4
B7: mAb of B cell clone 204 (supernatant) (antibody, V domains shown)
VH: QSVKESGGGLVKPGGTLTLTCTASGFSFSSSYCMCWVRQAPGKGLELIACIYTDSSGATYYASWAKGRFTISKSSSTTITLQMTSLTAADTATYFCARGWDYEDPGYTDTTYFSLWGPGTLVTVSS
VL: ELDMTQTPSSVEAAVGGTVTIKCQASQTIYTNLAWYQQKPGQPPNLLIYAASTLASGVSSRFKGSGSGTEFTLTISDLECADAATYYCQSYYGSSTTGNGFGGGTEVEIN
notes: rabbit
B8: mAb of B cell clone 176 (supernatant) (antibody, V domains shown)
VH: B7 VH with V3L, K4E, G7E
VL: B7 VL with M4L, N110K
notes: rabbit
B9: mAb of B cell clone 227 (supernatant) (antibody, V domains shown)
VH: B7 VH
VL: ELDLTQTASPVSGAVGGTVTIKCQASQSIASDLAWYQQKPGQPPNLLIYAASTLASGVSSRFKGSGSGTEFTLTISDLECADAATYYCQSYYGSSTTGNGFGGGTEVVVK
notes: rabbit
B10: mAb of B cell clone 115 (supernatant) (antibody, V domains shown)
VH: EQSVKESGGGLVQPEGSLTLTCTASGFSFSSSYWICWVRQAPGKGLEWIGCIATGTGSTYYANWVNGRFTMSKPSSTTVTLQMTTLTAADTATYFCARGGGYWSFSLWGPGTLVTISS
VL: ELVMTQTPSSVEAAVGGTVTNKCQASEDIYSNLAWYQQKPGQPPKLLIYGATTLASGVPSRFKGSGSGTEFTLTISDLECADAATYYCQAESNDVWAFGGGTEVVVK
notes: rabbit
B11: mAb of B cell clone 125 (supernatant) (antibody, V domains shown)
VH: EQSLEESGGGLVQPEGSLTLTCTASGFSFTKNYYMCWVRQAPGKGLEWIGCIYAGSTNTFYASWAKGRFTISKASSTTVDLKMTSLTVADTATYFCARDFVSYLNLWGPGTLVTVSS
VL: ELDLTQTPSSSSAAVGGTVTINCQASQSVYNKNYLSWFQQKPGQPPKLLIYYASTLASGVPSRFKGSGSGTEFTLTISDVVCDDAATYYCAAYKGVSDDGISFGGGTEVEIK
notes: rabbit
B12: mAb of B cell clone 160 (supernatant) (antibody, V domains shown)
VH: QEQLVESGGGLVQPEGSLTLTCKASGIDFSSGYWICWVRQAPGKGLELIACIFTSSGTTYYASWAKGRFTISKTSSTTVTLQMTSLTAADTATYFCARDIYSYGMDLWGPGTLVTVSS
VL: ELDLTQTPASVSAAVGGTVTIKCQASQSISSSYLAWYQQKPGQPPKLLIYSASSTASGVPSRFKGSGSGTQFTLTISDLECADAATYYCQSTYISSSKYGAVFGGGTELEIK
notes: rabbit; also called B1-#160
B13: mAb of B cell clone 117 (supernatant) (antibody, V domains shown)
VH: EQSLEESGGDLVKPEGSLTLTCTASGFSFSSSYYMCWIRQPPGRGLEWLACIYTGSDSTYYAPWAKGRFTISRTSSTTVTLQMTSLTAADTATYFCAGDWDYADAAGYYVARGFNLWGPGTLVTISS
VL: ELDLTQTPASVSAAVGGTVTIKCQASEDIYSNLAWYQQKPGQPPKLLIYKASTLASGVPPRFKGSGSGTEYTLTISGVQCDDAATYACQTTYWTTTDDNPFGGGTEVEIK
notes: rabbit
B14: mAb of B cell clone 173 (supernatant) (antibody, V domains shown)
VH: QSVEESGGDLVKPGASLTLTCTASGFDFSSNAYLCWVRQAPGKGLEWIGCIYDGTSGDTYYANWAKGRFTISRSSSTTVTLQMTSLTAADTATYFCARDTRSSNYYFNLWGPGTLVTISS
VL: ELVLTQTPSSTSAAVGGTVTINCQASQSVDNNKQLSWYQQKPGQPPKQLIYSASKLASGVPSRFKGSGSGTQFTLTISDLECDDAATYYCAGYYYSGSATDAWAFGGATEVEIN
notes: rabbit
B15: mAb of B cell clone 128 (supernatant) (antibody, V domains shown)
VH: RAVGKESGGDLVTLGGSLKLSCKASGIDLSNFYYMCWVRQAPGKGLEWIGCVASDSSRTHYATWPKGRFTISKTSSTTVTLQMTSLTAADTATYFCARGSGASTNGVWWVMGDGMDLWGPGTLVTVSS
VL: ELDMTQTPSSVSAAVGGTVTIKCQASQSISSYLSWYQQKPGQPPKRLIYKASTLPSGVPPRFKGSGSGTEFTLTISDLECADAATYYCQNNYHSGSSNGGGFAFGGGTQVEIK
notes: rabbit
B16: mAb of B cell clone 175 (supernatant) (antibody, V domains shown)
VH: ESEGGLVKPGGTLTLTCKVSGIDFNSYKYYYMCWVRQAPGKGLEWIGCMSTASRNIYYASWAKGRFTISETSSTSVTLQMTTLTAADTATYFCAKSHGGDGGYGVVLWGPGTLVTISS
VL: ELVMTQTPSSVSAAVGDTLTINCQASETISNRLAWYQQKPGQPPKLLIYSASTLESGVPSRFRGSGSGTQFTLTISDLECADAATYYCQSIRSSSGVVHPNTFGGGTEVEIK
notes: rabbit
B17: mAb of B cell clone 3 (supernatant) (antibody, V domains shown)
VH: QSLEESEGDLVKPEGSLTLTCKASGFDFSSDAMCWVRQAPGKGLEWIGCIYNGDEITDHASWAKGRFTISKTSPTTVTLQMTSLTVADTATYFCARAVYSDGGAGYPYMYGMDLWGPGTLVTVSS
VL: ELDMTQTPASVEAAVGGTVTIKCQASQNIYSYLVWYQQKPGQPPKLLISKASTLASGVSSRFKGSGSGTEFTLTINDLECADAATYYCQTNYFSSTSHFGVFTFGGGTELEIK
notes: rabbit; also called B1-#3
B18: mAb of B cell clone 190 (supernatant) (antibody, V domains shown)
VH: QEQLKESGGDLVKPEGSLTLTCTASGFSFSSDYWVCWVRQAPGKGPEWIGCIYTGDDDTYYASWAKGRFTISKTSSTTVTLEVTSLTAADTATYFCARGLTIGTAELYFWGPGTVVTVSS
VL: ELVLTQTPSPVSAAVGGTVTINCQASQSISNELSWYQQKPGQPPKLLIYLASTLDSGVPSRFKGSGSGTQFTLTISDLECADAATYYCQSHYYGGSSDYGWAFGGGTEVVVK
notes: rabbit; also called B1-#190
B19: mAb of B cell clone 98 (supernatant) (antibody, V domains shown)
VH: EQSLEESGGDLVKPEGSLTLTCTASGFSFSSSYWICWVRQAPGKGLEWIACVATGSGTTDYASWAKGRFTMSKTSSTTVTLQMTSLTVADTATYFCARIGAFYSFRLWGPGTLVTISS
VL: ELDLTQTPGSVEAAVGGTVTIKCQAGQSIYNYLSWYQQKPGQPPKLLIYSASTLESGVPPRFSGSGSGTEFTLTISDLECADAATYSCQNNYGIGSNYGPGFGGGTEVEIK
notes: rabbit; also called B1-#98
B20: mAb of B cell clone 178 (supernatant) (antibody, V domains shown)
VH: QKQLVESGGGLVQPEGSLALTCTASGFSFSSSYWICWVRQAPGKGLEWIACIYAGSSGSTYYASWVNGRFTVFKTSSTTVTLQMTSLTAADTATYFCARGGTSYRLDLWGPGTLVTVSS
VL: ELVLTQTPSSKSVAVGDTVTINCQASDNVYSNNYTSWFQQKPGQPPKQLLYYAAYRASGVPSRFKGSGSGTEFTLSISDVVCDDAATYYCSGHKDYSDDGSTFGGGTEVEIK
notes: rabbit
B21: mAb of B cell clone 185 (supernatant) (antibody, V domains shown)
VH: SQQLKESGGGLVKPGGTLTLTCKASGIDFNNDYNICWVRQPPGKGLEWIGCIYTGSDSTDYASWVNGRFTISESTSLNTVDLKVTSLTDADTATYFCARDLVTGYATYGYGFILWGPGTLVTVSS
VL: B20 VL
notes: rabbit
B22: mAb of B cell clone 154 (supernatant) (antibody, V domains shown)
VH: QSVKESGGDLVKPGASLTLTCKASGFSFSSGHYMYWVRQAPGKGLEWIACIYAGSDTGSTWYASWAKGRFTISKTSSTTVTLQMTSLTAADTATYFCARSSNSYGNYGVSNLWGPGTLVTVSS
VL: ELDLTQTPASVEAAVRGTVTIKCQASQSISYYLAWYQQKPGQPPKVLIYKASTLASGVPPRFKGSGFGTEFTLTISDLECADAATYYCQSTYGRDNNDLFFAFGGGTEVEIK
notes: rabbit
B23: mAb of B cell clone 170 (supernatant) (antibody, V domains shown)
VH: QSVEESGGGLVKPGASLTLSCTASGFDFSSKYYMWWVRQAPGKGLEWIARIYGGSSDSTDYATWARGRFAISRTSSTTVTLRMTSLTAADTATYFCGRVIDGACGYDLWGPGTLVTVSS
VL: ELDLTQTPASVSAAVGGTVTISCQSSQSVHHSQTVHNNQWLAWYQQKPGQPPKLLIYDASKLASGVPSRFTGSGSGTQFSLTISAVQCDDAATYYCQGGYSYGDVYGFGGGTELEIK
notes: rabbit; also called B1-#170

Target: T1, human LILRB1 recombinant protein (human, UniProt Q8NHL6 24-461)
T1 construct: The ELISA method says only 'LILRB1 recombinant proteins' coated on plates; also called leukocyte immunoglobulin-like receptor subfamily B member 1
T1 sequence (Q8NHL6 24-461 limits assumed): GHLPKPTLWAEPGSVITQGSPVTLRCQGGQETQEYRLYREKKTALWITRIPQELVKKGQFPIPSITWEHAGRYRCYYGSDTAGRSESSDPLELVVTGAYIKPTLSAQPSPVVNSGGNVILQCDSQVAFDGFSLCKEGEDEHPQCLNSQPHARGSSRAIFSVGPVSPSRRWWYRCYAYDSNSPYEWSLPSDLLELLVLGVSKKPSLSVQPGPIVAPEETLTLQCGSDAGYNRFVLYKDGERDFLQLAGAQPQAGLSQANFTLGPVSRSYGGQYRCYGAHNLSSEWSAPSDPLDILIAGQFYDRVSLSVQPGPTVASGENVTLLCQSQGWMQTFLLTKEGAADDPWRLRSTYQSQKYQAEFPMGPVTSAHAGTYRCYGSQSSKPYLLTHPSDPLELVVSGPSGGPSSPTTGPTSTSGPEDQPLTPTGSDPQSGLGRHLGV
Test: ELISA, B cell supernatant

Row | Binder | OD450 [OD450]
1 | B1 | 2.02
2 | B2 | 1.72
3 | B3 | 1.12
4 | B4 | 2.27
5 | B5 | 2.31
6 | B6 | 2.47
7 | B7 | 2.03
8 | B8 | 2.06
9 | B9 | 2.08
10 | B10 | 1.53
11 | B11 | 2.43
12 | B12 | 1.87
13 | B13 | 2.23
14 | B14 | 2.14
15 | B15 | 2.51
16 | B16 | 2.02
17 | B17 | 2.11
18 | B18 | 1.9
19 | B19 | 2.01
20 | B20 | 1.81
21 | B21 | 1.67
22 | B22 | 1.98
23 | B23 | 2.26
